Results from article PMC10754689.

Experiments:
Assay in all cases: TPM
[1] = system: LI Int K362A (Listeria innocua prophage (phage LI)); conditions: 200 or 400 nM Int, 5 mM Mg2+, TPM (LI Int): 20 mM Tris-HCl pH 8.0, 150 mM KCl, 5% glycerol, 5 mM MgCl2, 5 mM DTT, 2 mg/mL BSA, 22°C, 30 min, φC31 Int at 20 nM, its buffer not in the …
[2] = system: LI Int S10A (Listeria innocua prophage (phage LI)); conditions: 5 mM Mg2+, TPM (LI Int): 20 mM Tris-HCl pH 8.0, 150 mM KCl, 5% glycerol, 5 mM MgCl2, 5 mM DTT, 2 mg/mL BSA, 22°C, 30 min, φC31 Int at 20 nM, its buffer not in the …
[3] = system: LI Int wt (Listeria innocua prophage (phage LI)); conditions: 5 mM Mg2+, TPM (LI Int): 20 mM Tris-HCl pH 8.0, 150 mM KCl, 5% glycerol, 5 mM MgCl2, 5 mM DTT, 2 mg/mL BSA, 22°C, 30 min, φC31 Int at 20 nM, its buffer not in the …
[4] = system: LI Int ΔCC (Listeria innocua prophage (phage LI)); conditions: 200 or 400 nM Int, 5 mM Mg2+, TPM (LI Int): 20 mM Tris-HCl pH 8.0, 150 mM KCl, 5% glycerol, 5 mM MgCl2, 5 mM DTT, 2 mg/mL BSA, 22°C, 30 min, φC31 Int at 20 nM, its buffer not in the …
[5] = system: φC31 Int wt (Streptomyces coelicolor phage φC31); conditions: TPM (LI Int): 20 mM Tris-HCl pH 8.0, 150 mM KCl, 5% glycerol, 5 mM MgCl2, 5 mM DTT, 2 mg/mL BSA, 22°C, 30 min, φC31 Int at 20 nM, its buffer not in the …
[6] = system: φC31 Int ΔCC (Streptomyces coelicolor phage φC31); conditions: TPM (LI Int): 20 mM Tris-HCl pH 8.0, 150 mM KCl, 5% glycerol, 5 mM MgCl2, 5 mM DTT, 2 mg/mL BSA, 22°C, 30 min, φC31 Int at 20 nM, its buffer not in the …

LI attB-attP head-to-tail 1303 bp
binding signal [1]: 54.9 % DNA bound
binding signal ([2]; 100 nM Int): 76.4 % DNA bound
binding signal ([3]; 100 nM Int): 81.1 % DNA bound
binding signal [4]: 17.8 % DNA bound

LI attL-attR head-to-tail 1303 bp
binding signal ([1]; no RDF): 20.5 % DNA bound
binding signal ([2]; 200 nM Int, no RDF): 51.7 % DNA bound
binding signal ([3]; 200 nM Int, no RDF): 48.6 % DNA bound
binding signal ([4]; no RDF): 16.1 % DNA bound

φC31 attB-attP head-to-tail 1303 bp
binding signal ([5]; 20 nM Int): 80.4 % DNA bound
binding signal ([6]; 20 nM Int): 30.6 % DNA bound

φC31 attL-attR head-to-tail 1303 bp
binding signal [5]: 19.9 % DNA bound
binding signal [6]: 21 % DNA bound
